# Experimental data published in patent US20220396819A1, “METHOD FOR PRODUCING PEPTIDE HAVING PHYSIOLOGICAL ACTIVITY, AND PEPTIDE COMPRISING SHORT LINKER” (priority 2019, published 2022).
# Positions of bridges follow the written chain, without caps; N, C: chain ends. No end group written: not given here.
# B1: AET-aMD4dY-GS22 (peptide)
# peptide: AETCRQFNRRTHEVWNLDCGGGGGSGGGGSGGGGSGGGGSGGGCRQFNRRTHEVWNLDC
# modifications: disulfide 4-19, 44-59
# B2: AET-PAS-aMD4dY-PEG11 (peptide)
# peptide: AETCRQFNRRTHEVWNLDCGAAPAAPAPAAPAAPAPAAPAAPGCRQFNRRTHEVWNLDC
# modifications: disulfide 4-19, 44-59; also: PEG11 in name, stated same as AET-aMD4dY-PAS22
# B3: AET-aMD4dY-GS15 (peptide)
# peptide: AETCRQFNRRTHEVWNLDCGGGGGSGGGGSGGGGSGCRQFNRRTHEVWNLDC
# modifications: disulfide 4-19, 37-52
# B4: AET-aMD4dY-PAS49 (peptide)
# peptide: AETCRQFNRRTHEVWNLDCGAAPAAPAPAAPAAPAPAAPAAPAPAAPAAPAPAAPAAPAPAAPAAPAPAGCRQFNRRTHEVWNLDC
# modifications: two disulfide bonds in the molecule
# B5: AET-aMD4dY-PAS200 (peptide)
# peptide: AETCRQFNRRTHEVWNLDCGAAPAAPAPAAPAAPAPAAPAAPAPAAPAAPAPAAPAAPAPAAPAAPAPAAPAAPAPAAPAAPAPAAPAAPAPAAPAAPAPAAPAAPAPAAPAAPAPAAPAAPAPAAPAAPAPAAPAAPAPAAPAAPAPAAPAAPAPAAPAAPAPAAPAAPAPAAPAAPAPAAPAAPAPAAPAAPAPAAPAAPAPAAPAAPAPAAPAAPAPGCRQFNRRTHEVWNLDC
# modifications: two disulfide bonds in the molecule
# B6: AETCRQFNRRTHEVWNLDCGAAPAAPAPAAPAAPAPAAPAAPGCRQFNRRTHEVWNLDCGAAPAAPAPAAPAAPAPAAPAAPGCRQFNRRTHEVWNLDC (peptide)
# chain: AETCRQFNRRTHEVWNLDCGAAPAAPAPAAPAAPAPAAPAAPGCRQFNRRTHEVWNLDCGAAPAAPAPAAPAAPAPAAPAAPGCRQFNRRTHEVWNLDC
# modifications: AET-aMD4dY-PAS22-Trimer; DISULFID (4)..(19) Disulfid bridge between Cys-4 and Cys-19; DISULFID (44)..(59) Disulfid bridge between Cys-44 and Cys-59; DISULFID (84)..(99) Disulfid bridge between Cys-84 and Cys-99
# B7: AET-aMD4dY-PAS100 (peptide)
# peptide: AETCRQFNRRTHEVWNLDCGAAPAAPAPAAPAAPAPAAPAAPAPAAPAAPAPAAPAAPAPAAPAAPAPAAPAAPAPAAPAAPAPAAPAAPAPAAPAAPAPAAPAAPAPAAPAAPAPAAPAGCRQFNRRTHEVWNLDC
# modifications: two disulfide bonds in the molecule
# B8: MAETCYRQFNRRTHEVWNLDCGAAPAAPAPAAPAAPAPAAPAAPGCRQFNRRTHEVWNLDC (peptide)
# chain: MAETCYRQFNRRTHEVWNLDCGAAPAAPAPAAPAAPAPAAPAAPGCRQFNRRTHEVWNLDC
# modifications: disulfide 5-21, 46-61
# Columns and labels:
# VEGFR = target: T1, VEGFR (Homo sapiens, UniProt P35968); assay: VEGF inhibitory ability, luciferase assay in VEGFR/NFAT Reporter HEK293 cells; format: cell-based
# T1 construct: host or cells: VEGFR/NFAT Reporter HEK293 cells
# Procedure: The VEGF inhibitory ability of the VEGFR_D2-PAS heterodimer peptide was evaluated by luciferase assay. 40,000 cell/well VEGFR/NFAT Reporter HEK293 cells (BPS Bioscience) were seeded and incubated overnight in a 5% CO2 incubator at 37° C. The cells were incubated overnight in Assay medium (MEM medium (Nacalai Tesque), 1×MEM Non-Essential Amino Acids Solution (Thermo Fisher Scientific), 1 mM Sodium Pyruvate (Nacalai Tesque), 1% Penicillin-Streptomycin (Sigma Aldrich), and 0.3% FBS (Thermo Fisher Scientific)) to starvation. […] The cells were stimulated by culturing in a 5% CO2 incubator at 37° C. for 4 hours.
# One-Glo Luciferase Assay System (Promega) was used to detect the signal intensity. Medium supernatant in an amount of 50 μL was removed, 50 μL of One-Glo reagent was added, and the cells were lysed for 10 minutes at room temperature. The luminescence emitted from the cell lysate solution was detected with a Nivo plate reader (Perkin Elmer) to quantify the activation of the VEGFR-NFAT pathway, and the relative signal activity value for the sample without addition of evaluation compound was determined and used as relative receptor activity.
# The VEGF inhibitory ability of the cell-free expressed VEGFR_D2-PAS heterodimer peptide was evaluated by luciferase assay. 40,000 cell/well VEGFR/NFAT Reporter HEK293 cells (BPS Bioscience) were seeded and incubated overnight in a 5% CO2 incubator at 37° C. The cells were incubated overnight in Assay medium (MEM medium (Nacalai Tesque), 1×MEM Non-Essential Amino Acids Solution (Thermo Fisher Scientific), 1 mM Sodium Pyruvate (Nacalai Tesque), 1% Penicillin-Streptomycin (Sigma Aldrich), and 0.3% FBS (Thermo Fisher Scientific)) to starvation. To the Assay medium, 100 μL of 10 ng/mL human recombinant VEGF (R&D Systems) was added, and further, MAET-VEGFR_D2-PAS16, MAET-VEGFR_D2-PAS49-b, MAET-VEGFR_D2-PAS100-b, or a cell-free expression solution containing MAET-VEGFR_D2-GS16, or a cell-free expression solution with unexpressed peptide was added at a predetermined dilution factor, and 100 μL of the Assay medium was added to the cells. The cells were stimulated by culturing in a 5% CO2 incubator at 37° C. for 4 hours.
# The VEGF inhibitory ability of the VEGFR_D2-PAS heterodimer peptide linker variant was evaluated by luciferase assay. 40,000 cell/well VEGFR/NFAT Reporter HEK293 cells (BPS Bioscience) were seeded and incubated overnight in a 5% CO2 incubator at 37° C. The cells were incubated overnight in Assay medium (MEM medium (Nacalai Tesque), 1×MEM Non-Essential Amino Acids Solution (Thermo Fisher Scientific), 1 mM Sodium Pyruvate (Nacalai Tesque), 1% Penicillin-Streptomycin (Sigma Aldrich), and 0.3% FBS (Thermo Fisher Scientific)) to starvation. To the Assay medium, 10 ng/mL human recombinant VEGF (R&D Systems) was added, and further, a culture supernatant containing VEGFR_D2-PAS16, VEGFR_D2-PAS49, or VEGFR_D2-PAS100 at a predetermined concentration was added, and 100 μL of the Assay medium was added to the cells. The cells were stimulated by culturing in a 5% CO2 incubator at 37° C. for 4 hours. Note that VEGFR_D2-PAS16 was obtained according to the method described in Example 27.
# Met = target: T2, Met (Homo sapiens, UniProt P08581); assay: Met activation ability, SRE luciferase assay in HEK293E cells (HGF-Erk-SRE pathway); format: cell-based; settings: for Met activation ability: Example 37, cell-free translation solution diluted, FIG. 69
# T2 construct: endogenous in cells; host or cells: HEK293E
# Procedure: (§1) The Met activation ability of the HGF-PAS dimer peptide was evaluated by luciferase assay. To 25 μL of Opti-MEM medium (Thermo Fisher Scientific), 0.6 μL of Attractene Transfection Reagent (QIAGEN) was added, and the mixture was incubated at room temperature for 5 minutes. To the above mixed solution, a mixed solution of 25 μL of Opti-MEM and 1 μL of SRE reporter vector (QIAGEN) was added, and the mixture was incubated at room temperature for 20 minutes. This mixed solution was added to a 96-well plate, over which 40,000 cell/well HEK293E cells were seeded and incubated overnight in a 5% CO2 incubator at 37° C. After transfection, all culture supernatant was removed, 100 μL of Opti-MEM medium (evaluation basal medium) containing 0.5% FBS (Thermo Fisher Scientific), 1% non-essential amino acid solution (Thermo Fisher Scientific), and penicillin-streptomycin (Nacalai Tesque) was added, and incubation was performed at 37° C. for 4 hours, and thereby the cells were starved.
# To the evaluation basal medium, 0 to 200 ng/mL HGF was added, or 0 to 800 ng/mL AET-PAS-aMD4dY-PEG11, AET-PAS-aMD4-PEG11, or AET-PAS-aMD4-PEG3 was added, or a culture supernatant containing PAS-aMD4dY-PEG11, PAS-aMD4-PEG11, or PAS-aMD4-PEG3 was added so as to be diluted 10-fold with respect to the medium, and the evaluation basal medium was added in an amount of 100 μL to the cells. The cells were stimulated by culturing overnight in a 5% CO2 incubator at 37° C.
# The signal intensities were detected using Dual-Luciferase Reporter Assay System (Promega). The medium supernatant in an amount of 100 μL was removed, 50 μL of Glo reagent was added, and the cells were lysed for 10 minutes at room temperature. The luminescence of Firefly luciferase emitted from the cell lysate solution was detected with a plate reader to quantify the activation of the HGF-Erk-SRE pathway. Subsequently, 50 μL of Glo & Stop reagent solution was added, and after 10 minutes, the luminescence of the internal standard Renilla luciferase was detected to quantify the number of cells. The signal activity of each sample was quantified as SRE activity=(Firefly luciferase luminescence intensity)/(Renilla luciferase luminescence intensity). The relative signal activity values for the samples without addition of the evaluation compound were determined and used as relative receptor activity.
# as §1, with “peptide linker variant” for “peptide”, “0.6 L” for “0.6 μL”
# To the evaluation basal medium, 0 to 100 ng/mL HGF was added, or a culture supernatant containing AET-aMD4dY-PAS8, AET-aMD4dY-PAS22 (the same molecule as AET-PAS-aMD4dY-PEG11), AET-aMD4dY-PAS49, AET-aMD4dY-PAS100, AET-aMD4dY-PAS200, AET-aMD4dY-GS15, or AET-aMD4dY-GS22 was added to the medium so as to be diluted at a predetermined ratio, and the evaluation basal medium was added in an amount of 100 μL to the cells. The cells were stimulated by culturing overnight in a 5% CO2 incubator at 37° C.
# The Met activation ability of the stabilized HGF-PAS dimer peptide was evaluated by luciferase assay. […]
# Met (HGF receptor) = Met (HGF receptor) (UniProt P08581 25-1390, limits assumed); assay: cell-based or functional assay
# Chain of Met (HGF receptor) (P08581 25-1390 limits assumed): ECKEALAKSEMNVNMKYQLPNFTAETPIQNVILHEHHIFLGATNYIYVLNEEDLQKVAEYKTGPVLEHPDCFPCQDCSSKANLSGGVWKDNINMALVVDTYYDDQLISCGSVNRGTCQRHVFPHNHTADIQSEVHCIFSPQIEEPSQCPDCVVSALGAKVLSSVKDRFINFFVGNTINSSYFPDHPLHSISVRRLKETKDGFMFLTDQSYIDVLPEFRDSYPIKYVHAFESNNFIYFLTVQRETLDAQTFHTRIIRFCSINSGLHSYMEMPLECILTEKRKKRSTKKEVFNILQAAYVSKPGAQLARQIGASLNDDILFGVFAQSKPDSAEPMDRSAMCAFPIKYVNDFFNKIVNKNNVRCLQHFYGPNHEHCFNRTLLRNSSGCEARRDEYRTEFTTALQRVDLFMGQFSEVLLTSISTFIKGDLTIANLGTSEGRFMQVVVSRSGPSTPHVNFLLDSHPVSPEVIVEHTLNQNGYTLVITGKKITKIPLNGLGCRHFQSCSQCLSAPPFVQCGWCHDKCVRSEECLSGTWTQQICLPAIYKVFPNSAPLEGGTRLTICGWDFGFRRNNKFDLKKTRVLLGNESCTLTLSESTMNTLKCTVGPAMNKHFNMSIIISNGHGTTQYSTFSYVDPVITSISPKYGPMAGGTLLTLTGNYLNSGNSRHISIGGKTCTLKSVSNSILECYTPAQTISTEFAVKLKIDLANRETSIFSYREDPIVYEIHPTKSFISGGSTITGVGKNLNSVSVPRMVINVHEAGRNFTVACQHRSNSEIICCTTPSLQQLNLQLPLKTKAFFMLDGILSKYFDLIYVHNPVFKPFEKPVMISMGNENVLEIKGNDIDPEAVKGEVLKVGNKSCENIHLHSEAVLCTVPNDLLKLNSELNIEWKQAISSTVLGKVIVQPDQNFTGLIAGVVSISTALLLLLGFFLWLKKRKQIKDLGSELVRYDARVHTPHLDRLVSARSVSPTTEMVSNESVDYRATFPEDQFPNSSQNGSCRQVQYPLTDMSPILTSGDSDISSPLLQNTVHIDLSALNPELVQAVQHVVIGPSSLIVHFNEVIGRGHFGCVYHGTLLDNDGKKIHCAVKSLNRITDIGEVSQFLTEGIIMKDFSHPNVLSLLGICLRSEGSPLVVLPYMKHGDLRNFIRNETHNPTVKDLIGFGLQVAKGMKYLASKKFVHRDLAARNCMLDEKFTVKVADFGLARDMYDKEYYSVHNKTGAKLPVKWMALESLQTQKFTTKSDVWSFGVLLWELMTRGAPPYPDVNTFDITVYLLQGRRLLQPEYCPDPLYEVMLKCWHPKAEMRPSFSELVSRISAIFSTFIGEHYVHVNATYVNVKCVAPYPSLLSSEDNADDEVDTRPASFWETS
# T1 sequence (P35968 20-1356): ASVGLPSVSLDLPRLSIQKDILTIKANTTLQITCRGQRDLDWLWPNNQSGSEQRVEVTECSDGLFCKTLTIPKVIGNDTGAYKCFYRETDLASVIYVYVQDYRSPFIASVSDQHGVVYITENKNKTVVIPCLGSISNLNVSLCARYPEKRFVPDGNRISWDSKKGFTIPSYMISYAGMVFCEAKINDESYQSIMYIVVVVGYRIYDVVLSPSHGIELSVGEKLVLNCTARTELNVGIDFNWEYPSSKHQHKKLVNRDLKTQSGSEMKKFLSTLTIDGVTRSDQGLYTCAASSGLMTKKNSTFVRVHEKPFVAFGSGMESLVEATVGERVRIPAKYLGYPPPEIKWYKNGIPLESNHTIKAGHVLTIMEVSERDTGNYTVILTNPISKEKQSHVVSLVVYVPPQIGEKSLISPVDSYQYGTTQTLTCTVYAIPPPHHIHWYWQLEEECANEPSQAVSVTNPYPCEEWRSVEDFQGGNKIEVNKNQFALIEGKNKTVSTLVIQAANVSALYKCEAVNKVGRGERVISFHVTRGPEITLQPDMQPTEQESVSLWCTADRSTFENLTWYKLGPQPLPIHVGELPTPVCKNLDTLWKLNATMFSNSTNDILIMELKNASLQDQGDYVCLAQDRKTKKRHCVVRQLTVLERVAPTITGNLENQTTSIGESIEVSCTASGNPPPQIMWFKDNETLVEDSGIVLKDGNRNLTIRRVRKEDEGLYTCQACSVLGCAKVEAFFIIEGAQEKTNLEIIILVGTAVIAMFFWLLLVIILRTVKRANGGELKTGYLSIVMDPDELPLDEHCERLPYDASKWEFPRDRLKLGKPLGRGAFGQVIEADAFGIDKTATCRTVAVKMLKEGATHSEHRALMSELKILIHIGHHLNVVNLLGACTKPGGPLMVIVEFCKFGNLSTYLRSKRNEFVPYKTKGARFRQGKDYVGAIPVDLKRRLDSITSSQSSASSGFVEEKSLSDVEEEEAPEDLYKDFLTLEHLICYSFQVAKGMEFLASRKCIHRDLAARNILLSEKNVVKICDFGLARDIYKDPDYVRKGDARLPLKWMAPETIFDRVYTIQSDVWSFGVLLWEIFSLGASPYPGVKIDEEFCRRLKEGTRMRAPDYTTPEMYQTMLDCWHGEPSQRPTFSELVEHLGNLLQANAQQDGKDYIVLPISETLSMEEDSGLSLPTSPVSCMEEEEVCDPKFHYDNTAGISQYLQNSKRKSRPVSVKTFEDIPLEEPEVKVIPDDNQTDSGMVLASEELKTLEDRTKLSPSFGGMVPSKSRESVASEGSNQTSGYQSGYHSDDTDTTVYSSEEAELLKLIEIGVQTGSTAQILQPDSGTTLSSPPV
# T2 sequence (P08581 25-1390): as the sequence (P08581 25-1390 limits assumed) above
molecule,measurement,setting,value
"AETAGPTWCEDDWYYCWLFGTAAPAAPAPAAPAAPAPAAPAAPAPAAPAAPAPAAPAAPAPAAPAAPAPAVCWEDSWGGEVCWLFGT (disulfide 9-16, 72-82) [AET-VEGFR_D2-PAS49]",IC50,VEGFR,1.43 nM
"AETAGPTWCEDDWYYCWLFGTAAPAAPAPAAPAAPAPVCWEDSWGGEVCWLFGT (disulfide 9-16, 39-49) [AET-VEGFR_D2-PAS16]",IC50,VEGFR,0.26 nM
same,VEGF inhibitory activity (relative VEGF activity),"VEGFR; Example 29, purified by HPLC, 10 ng/mL VEGF, 4 hours, FIG. 47",higher inhibitory activity than the monomer peptides P3 and Pm4
"AETAGPTWCEDDWYYCWLFGTGGGGSGGGGSGGGGSGVCWEDSWGGEVCWLFGT (disulfide 9-16, 39-49) [AET-VEGFR_D2-GS16]",IC50,VEGFR,2.93 nM
"CRQFNRRTHEVWNLDC (disulfide 1-16) [aMD4dY, reference compound]","signal activation ability, dimer versus monomer","Met; Example 43, FIG. 76",showed no signal activation ability
"CRQFNRRTHEVWNLDCGAAPAAPAPAAPAAPAPAAPAAPGCRQFNRRTHEVWNLDC (disulfide 1-16, 41-56; also: PEG11) [PAS-aMD4dY-PEG11]",maximum activity compared with HGF,"Met; Example 6, AET form 0 to 800 ng/mL, PAS form culture supernatant diluted 10-fold",comparable to 100 ng/mL HGF
"MAETCRQFNRRTHEVWNLDCGAAPAAPAPAAPAAPAPAAPAAPGCRQFNRRTHEVWNLDC (disulfide 5-20, 45-60) [MAET-aMD4dY-PAS22]",Met activation ability,Met,had Met activation ability
"MAETCRQFNRRTHEVWNLDCGAAPAAPAPGCRQFNRRTHEVWNLDC (disulfide 5-20, 31-46) [MAET-aMD4dY-PAS8]",Met activation ability,Met,had Met activation ability
B1,Emax (%),Met (HGF receptor),32.3%
B2,Emax (%),Met (HGF receptor),100%
B3,Emax (%),Met (HGF receptor),45.8%
B4,Emax (%),Met (HGF receptor),82.8%
"AETCRQFNRRTHEVWNLDCGAAPAAPAPGCRQFNRRTHEVWNLDC (disulfide 4-19, 30-45) [AET-aMD4dY-PAS8]",Emax (%),Met (HGF receptor),56.4%
B5,Emax (%),Met (HGF receptor),20.4%
B6,"signal activation ability, trimer versus dimer","Met; Example 42, culture supernatant diluted, FIG. 75",signal activation ability similar to the dimer peptide
B7,Emax (%),Met (HGF receptor),47.2%
B8,Met activation ability,Met,had Met activation ability
